B1: SS12 active synthetic peptide (peptide)
peptide: GIVRKWISRFEVWPYL
B2: SS15 less active synthetic peptide (peptide)
peptide: GIVRKAISRFEVAPYL
B3: SS2 active peptide (SuSy 377-392) (peptide)
peptide: GIVRKWISRFEVWPYLKK

Molecular target: Purified rabbit muscle actin (Cytoskeleton Inc.) (rabbit, UniProt P68135 3-377)
Assay: cell-based or functional assay

Binder | bundling activity at 1:1 molar ratio to actin | bundling activity at molar ratio 100:1 | bundling activity at molar ratio peptide:actin = 1:1 | bundling activity at molar ratio to actin of 10 and 50 | effective peptide to actin ratio for bundling | bundling activity at molar ratio 10:1 and 100:1 | bundling when the peptide is present during polymerization | molar ratio of peptide to actin giving half-bundled and half-F-actin (co-polymerization, centrifugation, SDS-PAGE) | molar ratio of peptide:actin to bundle all the F-actin during polymerization
B1 | 1 molar ratio peptide:actin | 100 molar ratio peptide:actin | 1 molar ratio peptide:actin | 50 molar ratio peptide:actin | 1 molar ratio peptide:actin | – | – | – | –
B2 | – | – | 1 molar ratio peptide:actin | – | ~16 molar ratio peptide:actin | 10 molar ratio peptide:actin | – | – | –
B3 | 1 molar ratio peptide:actin | – | 1 molar ratio peptide:actin | – | 1 molar ratio peptide:actin | – | 2 molar ratio peptide:actin | 0.5 molar ratio peptide:actin | 1 molar ratio peptide:actin
